15 molecules from patent publication US20260167721A1 (ABLEXIS, published 2026) can be followed below.

Where a chain is given by its changes, count along the chain named. Bounds are passed on as bounds.

The target of experiment [1] is T1, recombinant human CD3 epsilon/delta heterodimer (human, UniProt P07766 23-126; P04234 22-105).
T1 construct: Recombinant heterodimer used as analyte in Octet; also called hCD3 E/D; human CD3E/D
The experiment is described as follows: BLI (Octet), mAb 5 ug/mL on FAB2G sensor, hCD3 E/D 200-50 nM. On the technique in general: Biolayer interferometry detects binding as a change in optical thickness at a sensor tip.
T1 sequence (P07766 23-126, stated change not applied, chain 1 of 2): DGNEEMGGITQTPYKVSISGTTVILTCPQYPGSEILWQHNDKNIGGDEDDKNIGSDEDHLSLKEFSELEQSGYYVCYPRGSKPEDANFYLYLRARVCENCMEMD
T1 sequence (P04234 22-105, stated change not applied, chain 2 of 2): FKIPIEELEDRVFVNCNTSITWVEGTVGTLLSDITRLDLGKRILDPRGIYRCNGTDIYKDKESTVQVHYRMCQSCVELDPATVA
Description: (§1) Samples were evaluated by flow cytometry analysis against Jurkat and human Pan-T cells (FIG. 1B) as well as by Octet against recombinant human CD3 proteins to evaluate apparent affinities and binding off-rates (Table 6, infra).

Experiment [2] addresses T2, recombinant human CD3 epsilon/gamma heterodimer (human, UniProt P07766 23-126; P09693 23-116).
T2 construct: Recombinant heterodimer used as analyte in Octet; also called hCD3 E/G
The experiment can be described thus: BLI (Octet), mAb 5 ug/mL on FAB2G sensor, hCD3 E/G 200-50 nM.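 Further: antibodies purified from hybridoma supernatants, measured by Octet binding to recombinant human CD3 protein.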
T2 sequence (P07766 23-126, chain 1 of 2): as the sequence (P07766 23-126, stated change not applied, chain 1 of 2) above
T2 sequence (P09693 23-116, chain 2 of 2): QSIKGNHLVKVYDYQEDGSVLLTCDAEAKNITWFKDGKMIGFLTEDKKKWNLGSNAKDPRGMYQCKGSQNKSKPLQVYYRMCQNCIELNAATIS
Description: as §1

The target of experiment [3] is T3, recombinant human CD3 epsilon/delta heterodimer (human, UniProt P07766 23-126; P04234 22-105).
T3 construct: Recombinant protein in solution (200-50 nM) in the Octet assay; also called hCD3 E/D; human CD3E/D
The experiment is described as follows: Octet BLI, mAb on FAB2G sensor, hCD3 E/D 200-50 nM; R^2 0.99.
T3 sequence (P07766 23-126, stated change not applied, chain 1 of 2): as the sequence (P07766 23-126, stated change not applied, chain 1 of 2) above
T3 sequence (P04234 22-105, stated change not applied, chain 2 of 2): as the sequence (P04234 22-105, stated change not applied, chain 2 of 2) above

Experiment [4] concerns the target T4, recombinant human CD3 epsilon/gamma heterodimer (human, UniProt P07766 23-126; P09693 23-116).
T4 construct: Recombinant protein in solution (200-50 nM) in the Octet assay; also called hCD3 E/G
The experiment can be described thus: Octet BLI, mAb on FAB2G sensor, hCD3 E/G 200-50 nM; R^2 0.99.
T4 sequence (P07766 23-126, chain 1 of 2): as the sequence (P07766 23-126, stated change not applied, chain 1 of 2) above
T4 sequence (P09693 23-116, chain 2 of 2): as the sequence (P09693 23-116, chain 2 of 2) above

B1: ABL-CD3-79 (antibody, V domains shown)
VH: EVQLVESGGGLVKPGGSLRLSCAASGFTVSNYSMNWVRQAPGKGLEWVSCISRSSSYIYYADSVKGRFTISRDNAKNSLFLQMNSLRAEDTAVYYCARERWELLYFDYWGQGTLVTVSS
VL: QTVVTQEPSFSVSPGGTVTLTCGLSSGSVSTSYYPSWYQQTPGQAPRTLIYSTNTRSSGVPDRFSGSILGNKAALTITGAQADDESDYYCVLYMGSGIWVFGGGTKLTVL
notes: mAb purified from hybridoma; chimeric AlivaMab IgG (human VH, CH1 and upper hinge; mouse middle hinge, CH2, CH3; human light chain)
As a reminder, the Kd is a measure of binding affinity in units of concentration. Usually koff stands for a measure of how fast the partners let go of each other. For orientation: kon means the second-order rate constant of association. Take B1: in experiment [1], the Kd is 120 nM, the Response is 0.22, the koff amounted to 0.0473 s⁻¹ and the on-rate constant (kon) turned out to be 393000 M⁻¹ s⁻¹. Besides, in experiment [2], the dissociation constant Kd was found to be 412 nM, the Response came to 0.07, the koff came out at 0.162 s⁻¹ and the kon is 393000 M⁻¹ s⁻¹.

B2: ABL-CD3-4 (antibody, V domains shown)
VH: VQLVESGGGLVKPGGSLRLSCAASGFTFSSYNMNWVRQAPGKGLEWVSSISSSSSYIYYADSVKGRFTISRDNAKNSLYLQMNSLRAEDTAVFYCARAERGSYAFDIWGQGTMVTVSS
VL: not shown
notes: Chimeric hybridoma mAb: human V, CH1, upper hinge; mouse middle hinge, CH2, CH3
On to B2, for which, in experiment [3], the Kd came to 94.5 nM, the Response came out at 0.32, the koff came out at 0.0302 s⁻¹ and the kon is 320000 M⁻¹ s⁻¹. Moreover, in experiment [4], the Kd came out at 91.9 nM, the Response amounted to 0.36, the koff was found to be 0.0221 s⁻¹ and the kon worked out at 241000 M⁻¹ s⁻¹.

B3: ABL-CD3-77 (antibody, V domains shown)
VH: EVQLVESGGGLVKPGGSLRLSCAASGFTFSSYSMNWVRQAPGKGLEWVSSISSSSSYIYYADSVKGRFTISRDNAKNSLYLQMNSLRAEDTAVYYCARDGELGIGTYFDYWGQGTLVTVSS
VL: QSVLTQPPSVSGAPGQRVTISCTGSSSNIGAGYDVHWYQQLPGTAPKLLIYGNSNRPSGVPDRFSGSKSGTSASLAITGLQAEDEADYYCQSYDSSLSGSVFGGGTKLTVL
notes: as for B1
Regarding B3, in experiment [1], the Kd was less than 0.001 nM, the Response was determined as 0.01 and the koff came to 0.0135 s⁻¹. Also, in experiment [2], the Kd was less than 0.001 nM, the Response was -0.01, the koff is less than 1e-07 s⁻¹ and the kon was determined as 50000 M⁻¹ s⁻¹.

B4: ABL-CD3-3 (antibody, V domains shown)
VH: EVQLVESGGGLVKPGGSLRLSCAASGFTFSSYSMNWVRQAPGKGLEWVSYISRSSNYIHYADSVKGRFTIFRDNAKNSLYLQMNSLRVEDTAVYYCARAERGSYAVDIWGQGTMVTVSS
VL: not shown
notes: as for B2
For the molecule B4, in experiment [3], the dissociation constant (Kd) worked out at 10.4 nM, the Response was 1.03, the koff worked out at 0.0012 s⁻¹ and the kon amounted to 116000 M⁻¹ s⁻¹. In addition, in experiment [4], the Kd came to 12.4 nM, the Response stood at 0.96, the koff was 0.00143 s⁻¹ and the kon worked out at 115000 M⁻¹ s⁻¹.

B5: ABL-CD3-69 (antibody, V domains shown)
VH: EVQLVESGGGLVKPGGSLRLSCAASGFTFSTYTMNWVRQAPGKGLEWVSTITSSSRYIYYADSVKGRFTISRDNAKNSLYLQMNSLRAEDTAVYYCARVTFDAFDIWGQGTMVTVSS
VL: NFMLTQPHSVSESPGKTVTISCTRSSGSIASNYVQWYQQRPGSSPTTVIYEDNQRPSGVPDRFSGSIDSSSNSASLTISGLKTEDEADYYCQSYDSSNRVFGGGTKLTVL
notes: as for B1
With B5, in experiment [1], the Kd amounted to 8.14 nM, the Response turned out to be 0.87, the koff stood at 0.000851 s⁻¹ and the on-rate (kon) came out at 105000 M⁻¹ s⁻¹. Also, in experiment [2], the Kd was determined as 3.73 nM, the Response was 0.88, the koff was 0.000321 s⁻¹ and the kon was found to be 86100 M⁻¹ s⁻¹.

B6: ABL-CD3-86 (antibody, V domains shown)
VH: EVQLVESGGGLVKPGGSLRLSCAASGFTFSRYSMNWVRQAPGKGLEWVSTISRSSRYIYYGDSVKGRFTISRDNAKNSLLLQMNSLRAEDTAVYYCARDHNWSFDYWGKGILVTVSS
VL: B5 VL with H8L, V18L, S25N, Q38R, N53K, T83A, Y94C, R99V, K106T
notes: as for B1
With B6, in experiment [1], the Kd was determined as 3.88 nM, the Response worked out at 1.1, the koff was 0.000711 s⁻¹ and the kon was found to be 184000 M⁻¹ s⁻¹. In addition, in experiment [2], the Kd was 3.52 nM, the Response came to 1.17, the koff was determined as 0.000558 s⁻¹ and the on-rate constant (kon) stood at 158000 M⁻¹ s⁻¹.

B7: ABL-CD3-85 (antibody, V domains shown)
VH: EVQLVESGGGLVKPGGSLRLSCAASGFTFSSYSMNWVRQAPGKGLEWVSSISRRSGYIYYADSVKGRFTLSRDNAKKSLYLQMNSLRAEDTAVYYCARDLNWAFDYWGQGTLVTVSS
VL: B5 VL with Q54H, S79A, Y94C, R99V
notes: as for B1
Take B7: in experiment [1], the Kd stood at 27.9 nM, the Response amounted to 0.042, the koff is 0.00689 s⁻¹ and the kon was 247000 M⁻¹ s⁻¹. Besides, in experiment [2], the Kd is 29.8 nM, the Response stood at 0.64, the koff stood at 0.00608 s⁻¹ and the kon was 204000 M⁻¹ s⁻¹.

B8: ABL-CD3-81 (antibody, V domains shown)
VH: QVQLQESGPGLVKPSQTLSLTCTVSGGSISSGGYYWSWIRQHPGKGLEWIGYIYYSGSTYYNPSLKSRVTISVDTSKDQFSLKLSSVTAADTAVYYCARERKTSLPFDIWGQGTMVTVSS
VL: B5 VL with D88Y, Y94F
notes: as for B1
Consider B8, for which, in experiment [1], the Kd amounted to 283 nM, the Response was 0.17, the koff amounted to 0.107 s⁻¹ and the kon stood at 378000 M⁻¹ s⁻¹. In experiment [2], the Kd was found to be 912 nM, the Response was found to be 0.04, the koff was found to be 0.692 s⁻¹ and the kon was 759000 M⁻¹ s⁻¹.

B9: ABL-CD3-83 (antibody, V domains shown)
VH: B7 VH with S50T, R54S, S55G, Y60D, L70I, K77N, L100F, A103T, Y106N
VL: B5 VL with Y94S, S96R, R99V
notes: as for B1
Take B9: in experiment [1], the Kd was determined as 22 nM, the Response worked out at 0.03, the koff was found to be 0.00882 s⁻¹ and the kon came to 401000 M⁻¹ s⁻¹. In addition, in experiment [2], the equilibrium dissociation constant (Kd) came out at 37.6 nM, the Response is 0.01, the koff stood at 0.00649 s⁻¹ and the kon worked out at 173000 M⁻¹ s⁻¹.

B10: ABL-CD3-73 (antibody, V domains shown)
VH: B1 VH with V29I, S30T, N31S, C50T, I51F, S56T, F80Y, R100K, E102D
VL: B5 VL with Q54R, S96N, K106T
notes: as for B1
Turning to B10, in experiment [1], the Kd was determined as 1.26 nM, the Response worked out at 1.02, the koff was 0.0001 s⁻¹ and the kon turned out to be 79700 M⁻¹ s⁻¹. Moreover, in experiment [2], the Kd turned out to be 6.12 nM, the Response is 0.99, the koff amounted to 0.000472 s⁻¹ and the kon came out at 77000 M⁻¹ s⁻¹.

B11: ABL-CD3-74 (antibody, V domains shown)
VH: EVQLVESGGGLVKPGGSLRLSCAASGFTFSSYSMKWVRQAPGKGLEWVSSISSSSSYIYYADSVKGRFTISRDNAKNSLYLQMNSLRAEDTAVYYCARDRGELTLWYWGQGTLVTVSS
VL: SYELTQPPSVSVSPGQTARITCSGDALPKKYAYWYQQKSGQAPVLVIYEDSKRPSGIPERFSGSSSGTMATLTISGAQVEDEADYYCYSTDSSGNHWVFGGGTKLTVL
notes: as for B1
As for B11, in experiment [1], the Kd was found to be 55.6 nM, the Response turned out to be 0.24, the koff stood at 0.026 s⁻¹ and the kon was 467000 M⁻¹ s⁻¹. In experiment [2], the Kd came out at 124 nM, the Response stood at 0.13, the koff came out at 0.0609 s⁻¹ and the kon came out at 492000 M⁻¹ s⁻¹.

B12: ABL-CD3-82 (antibody, V domains shown)
VH: B11 VH with K35N, G101R, T104L, W106D
VL: SYELTQPPSVSVSPGQTARITCSGDALPKKYAYWYQQKSGQAPVLVIYEDSKRPSGIPERFSGSSSGTMATLTISGAQVEDEADYYCYSTDSSGNHSWVFGGGTKLTVL
notes: as for B1
Consider B12, for which, in experiment [1], the Kd was determined as 10.6 nM, the Response is 0.02, the koff was 0.00192 s⁻¹ and the kon was determined as 182000 M⁻¹ s⁻¹. For the same molecule, in experiment [2], the Kd was found to be 3.18 nM, the Response is 0.02, the koff was determined as 0.00197 s⁻¹ and the kon is 620000 M⁻¹ s⁻¹.

B13: ABL-CD3-75 (antibody, V domains shown)
VH: B11 VH with S31T, M34L, K35N, S53V, S56R, Y60F, G101R, T104L, W106D
VL: B12 VL with S97N
notes: as for B1
For the molecule B13, in experiment [1], the Kd came out at 29.6 nM, the Response is 0.56, the koff was found to be 0.00726 s⁻¹ and the kon was found to be 245000 M⁻¹ s⁻¹. In addition, in experiment [2], the equilibrium dissociation constant (Kd) worked out at 159 nM, the Response came out at 0.19, the koff was 0.0593 s⁻¹ and the kon was 373000 M⁻¹ s⁻¹.

B14: ABL-CD3-76 (antibody, V domains shown)
VH: B11 VH with S31N, S33Y, K35N, W47R, S56N, G101R, T104P, W106D, L113V
VL: B11 VL
notes: as for B1
As for B14, in experiment [1], the Kd amounted to 48.2 nM, the Response is 0.53, the koff was found to be 0.0125 s⁻¹ and the kon was found to be 260000 M⁻¹ s⁻¹. Also, in experiment [2], the Kd is 134 nM, the Response was found to be 0.24, the dissociation rate constant (koff) amounted to 0.0461 s⁻¹ and the kon came to 345000 M⁻¹ s⁻¹.

B15: ABL-CD3-80 (antibody, V domains shown)
VH: EVQLVESGGGLVKPGGSLRLSCAASGFTFSGYSMNWVRQAPGKGLEWVSSISSRSRYIYYADSVQGRFTISRDNSKNSLFLQMNSLRAEDTAVYYCGRDWRELLLDYWGQGTLVTVSS
VL: B12 VL
notes: as for B1
For B15, in experiment [1], the Kd amounted to 125 nM, the Response is 0.36, the koff was found to be 0.0108 s⁻¹ and the kon amounted to 86200 M⁻¹ s⁻¹. In addition, in experiment [2], the Kd was found to be 148 nM, the Response was found to be 0.11, the koff amounted to 0.036 s⁻¹ and the kon turned out to be 243000 M⁻¹ s⁻¹.
